Patent publication US20230417748A1 (GREEN CROSS, published 2023)

Experiments:
Experiment in all cases: ELISA (FIG. 7)
[1] = target: T1, RBD-T478I (Sino biologics, 40592-V08H30) (SARS-CoV-2, UniProt P0DTC2 319-541)
T1 construct: domain: RBD

[2] = target: T2, RBD-N501Y (Sino biologics, 40592-V08H82) (SARS-CoV-2, UniProt P0DTC2 319-541)
T2 construct: domain: RBD

[3] = target: T3, RBD-N439K (Sino biologics, 40592-V08H14) (SARS-CoV-2, UniProt P0DTC2 319-541)
T3 construct: domain: RBD

[4] = target: T4, RBD-A522S (Sino biologics, 40592-V08H21) (SARS-CoV-2, UniProt P0DTC2 319-541)
T4 construct: domain: RBD

[5] = target: Spike-D614G (Sino biologics, 40589-V08B4) (SARS-CoV-2, UniProt P0DTC2 16-1213)
[6] = target: T5, RBD-S477N (Sino biologics, 40592-V08H46) (SARS-CoV-2, UniProt P0DTC2 319-541)
T5 construct: domain: RBD

[7] = target: T6, RBD-V367F (Sino biologics, 40592-V08H1) (SARS-CoV-2, UniProt P0DTC2 319-541)
T6 construct: domain: RBD

[8] = target: T7, RBD-P479S (Sino biologics, 40592-V08H57) (SARS-CoV-2, UniProt P0DTC2 319-541)
T7 construct: domain: RBD

Measured: binding result

B1: M5-4 (antibody, V domains shown)
VH: EVQLVESGGGLVKPGGSLRLSCAASGFTFSSRGMSWVRQAPGKGLEWVSTISFGDIYTYYPDSVKGRFTISRDNAKNSLYLQMNSLRAEDTAVYYCARPNDGYFDYWGQGTLVTVSS
VL: DIQMTQSPSSLSASVGDRVTITCKASQSVSNDVAWYQQKPGKAPKLLIYYASNRYTGVPSRFSGSGSGTDFTLTISSLQPEDFATYYCQQSYSAPYTFGGGTKVEIKR
binds: [1] | [2] | [3] | [4] | [5] | [6] | [7] | [8]
